Here are results for one molecule from PMC11782696, “Claudin-11 regulates immunological barrier formation and spermatogonial proliferation through stem cell factor” (Communications Biology, 2025).

The target in this experiment is T1, MBP fusion protein of the PDZ1 domain (aa 19-113) of mouse ZO1 (mouse, UniProt P39447 19-113).
T1 construct: zonula occludens 1 (ZO1), mouse, PDZ1 domain, aa 19-113 of the 1,745-amino-acid protein; Expression vector provided by Masahiko Itoh; also called MBP-zPDZ1; PDZ1 of ZO1; source: E. coli DH5α, purified (amylose resin, eluted with 10 mM maltose)
T1 sequence (looked up): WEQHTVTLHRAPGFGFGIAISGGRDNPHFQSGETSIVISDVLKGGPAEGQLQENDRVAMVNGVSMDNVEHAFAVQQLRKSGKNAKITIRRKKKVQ
As to the kind of experiment: pull-down; GST-fused proteins on Glutathione Sepharose 4B beads incubated with eluted MBP-fused proteins at 4 °C overnight in buffer A (50 mM Tris-HCl pH 8.0, 50 mM NaCl, 1 mM EDTA, 1 mM DTT); washed three times; SDS-PAGE and Coomassie Brilliant Blue staining. To be noted: both partners purified.

B1: GST fusion protein of the C-terminal 29 amino acids of mouse CLDN11 (aa 179-207) (domain or fragment, UniProt Q60771 179-207, looked up)
chain: SGDAQSFGENRFYYSSGSSSPTHAKSAHV
notes: claudin-11 (CLDN11), mouse, C-terminal 29 amino acids, aa 179-207 of the 207-residue protein; also called GST-CL11; claudin-11 C-terminus
Turning to B1, the binding result was “binds”.
